The record followed here is US12637502B2, “Netrin G1 polypeptides” (Institute For Cancer Research, priority 2019, dated 2026).

Experiment [1] concerns CAFs. Nature of the experiment: Cytokine secretion by CAFs treated with sNG1 or NetG1 peptides (ELISA). The note with it: CAFs treated 7 days, media conditioned 2 days, vs CON. The class given is cell-based. As to the method:
1.6×10^5 Control (CON) or NetrinG1 Ligand knockdown (NGL1 KD) CAFs were plated into 24 well plates and allowed to produce matrices in the presence of 50 μg/mL of ascorbic acid and were either untreated or treated with either soluble NetrinG1 (sNG1), NetG1 peptide corresponding to a domain known to engage with NGL1 (NPYMSNNE; SEQ ID NO:26; (FITC)—Ba-Asn-Pro-Tyr-Met-Ser-Asn-Asn-Glu-(NH2)), hypothesized to modestly prevent NetG1/NGL1 interaction (peptide), or a modified NetG1 peptide (NPTMSNNE; SEQ ID NO:27; (FITC)—Ba-Asn-Pro-Thr-Met-Ser-Asn-Asn-Glu-(NH2)) suspected to strongly prevent NetG1/NGL1 engagement (mutant), for 7 days. […] The media was then replaced with serum- and glutamine-free media and CAFs were allowed to condition the media for 2 days. Conditioned media was collected from each well and subjected to ELISA for the measurement of cytokine (TGF-β, IL-6, and IL-8) secretion. […] 01, *** p<. 001, **** p<. 0001. N=3-6.
A general note: In an ELISA, binding on a coated surface is turned into a signal by an enzyme label.

For another experiment, the system named is CAF EVs. In words: Clustering of CAF-secreted EVs treated after collection. The note with it: CAF EVs incubated with the agent following their collection.
Experiment [2] deals with CAFs. Nature of the experiment: EV production by CAFs treated with recombinant NGL1. The class given is cell-based.
The test system of experiment [3] is CAFs. Nature of the experiment: CAF blebbing under 3D conditions. The class given is cell-based, human. An excerpt: The phenotype is believed to indicate fibroblastic function after NGL1 engagement from other cells (like tumor cells). Similar effects were observed when cancer cells were co-cultured with CAFs using CAF-derived matrices as culturing scaffolds.

A further experiment deals with virus infected neurons. Nature of the experiment: Synapse-dependent viral transmission between neurons. The class given is cell-based. The note with it: neurons only, FIG. 3A/3C. As to the method:
(§1) Viral transmission was used as a test to investigate the formation of functional synapses. […] The same experiment, as in Panel A, was conducted, except that virus (red) infected neurons (green) were plated onto a CAF culture bed (evident in transmitted microscopy images shown in bottom panels) to assess heterotypic neuron-CAF functional synapse formation (evidence by red virus spread into CAFs) while untreated (left) or treated with recombinant NGL1 (middle) or NetG1 (right) (Panel B).

In experiment [4] the test system is virus infected neurons plated onto a CAF culture bed. In words: Heterotypic neuron-CAF functional synapse formation (virus spread into CAFs). The class given is cell-based. The note with it: FIG. 3B/3D. As to the method:
as §1

A further experiment has as its system PDAC cancer cells. In words: Rescue of starvation-induced death of PDAC cancer cells by CAF-produced EVs. The class given is cell-based. An excerpt:
PDAC cells die in the absence of nutrition but can be rescued using EVs secreted by intact CAFs. If CAFs are deficient in NetG1 expression, the resultant EVs fail to rescue PDAC cells from starvation. […] The pharmaceutical agents set forth herein will prevent the NetG1/NGL1 engagement and, thus, serve as therapeutics that will assure PDAC cells will not survive under nutritional stress as in vivo.

Experiment [5] concerns T cells from murine spleens. In words: T cell activation with CD3/CD28. The conditions noted are these: recombinant NetG1 present during activation. The class given is cell-based.

Take “NPTMSNNE (NetG1 polypeptide) [SEQ ID NO:27]”: in the experiment with CAFs [1], the “secreted IL-6” value is listed as “significant decreases”, the “secreted IL-8” value was “significant decreases” and the “secreted TGF-β” value is recorded as “significant decreases”.
Turning to “NPYMSNNE (NetG1 polypeptide) [SEQ ID NO:26, NetG1 peptide corresponding to a domain known to engage with NGL1]”, in the experiment with CAFs [1], the “secreted IL-6” value was “significant decreases”, the “secreted IL-8” value is “significant decreases” and the “secreted TGF-β” value was “significant decreases”.

B1: recombinant NGL1: recombinant Netrin G1 ligand (NGL1) protein added to EVs or cell cultures (protein)
chain: QTCPSVCSCSNQFSKVICVRKNLREVPDGISTNTRLLNLHENQIQIIKVNSFKHLRHLEILQLSRNHIRTIEIGAFNGLANLNTLELFDNRLTTIPNGAFVYLSKLKELWLRNNPIESIPSYAFNRIPSLRRLDLGELKRLSYISEGAFEGLSNLRYLNLAMCNLREIPNLTPLIKLDELDLSGNHLSAIRPGSFQGLMHLQKLWMIQSQIQVIERNAFDNLQSLVEINLAHNNLTLLPHDLFTPLHHLERIHLHHNPWNCNCDILWLSWWIKDMAPSNTACCARCNTPPNLKGRYIGELDQNYFTCYAPVIVEPPADLNVTEGMAAELKCRASTSLTSVSWITPNGTVMTHGAYKVRIAVLSDGTLNFTNVTVQDTGMYTCMVSNSVGNTTASATLNVTAATTTPFSYFSTVTVETMEPSQDEARTTDNNVGPTPVVDWETTNVTTSLTPQSTRSTEKTFTIPVTDINSGIPGIDEVMKTTKIIIGCFVAITLMAAVMLVIFYKMRKQHHRQNHHAPTRTVEIINVDDEITGDTPMESHLPMPAIEHEHLNHYNSYKSPFNHTTTVNTINSIHSSVHEPLLIRMNSKDNVQETQI
B1: in the experiment with CAF EVs, the EV clustering entry is listed as “enables small NetG1 positive (i.e., exomeres)”. For the same molecule, in the experiment with CAFs [2], the “clustering of EVs produced by treated CAFs” value is recorded as “induced some clustering” and the “number of EVs produced” value is reported as “production of increased numbers of EVs”. For the same molecule, in the experiment with CAFs [3] (3D conditions that enable NetrinG1 expression in CAFs), the “CAF blebbing (membrane ruffling or protruding)” value is listed as “induced CAF blebbing”. Also, the “CAF blebbing in NetG1 KO CAFs” value in the experiment with CAFs [3] (same treatment, NetG1 KO CAFs) is listed as “blebbing was not observed”. Also, the “virus transmission via functional synapses between neurons” value in the experiment with virus infected neurons is given as “limited virus transmission”. In addition, the “functional synapses between neurons and fibroblasts (virus spread into CAFs)” value in experiment [4] was “prevented”. Further, the “effectiveness of CAF-produced EVs in rescuing starvation-induced death of PDAC cancer cells” value in the experiment with PDAC cancer cells (EVs pre-incubated with recombinant NGL1) was “tends to decrease”.

B2: recombinant NetG1: recombinant Netrin G1 protein added to EVs or cell cultures (protein)
chain: HYDLCKTQIYTEEGKVWDYMACQPESTDMTKYLKVKLDPPDITCGDPPETFCAMGNPYMCNNECDASTPELAHPPELMFDFEGRHPSTFWQSATWKEYPKPLQVNITLSWSKTIELTDNIVITFESGRPDQMILEKSLDYGRTWQPYQYYATDCLDAFHMDPKSVKDLSQHTVLEIICTEEYSTGYTTNSKIIHFEIKDRFAFFAGPRLRNMASLYGQLDTTKKLRDFFTVTDLRIRLLRPAVGEIFVDELHLARYFYAISDIKVRGRCKCNLHATVCVYDNSKLTCECEHNTTGPDCGKCKKNYQGRPWSPGSYLPIPKGTANTCIPSISSIGNCECFGHSNRCSYIDLLNTVICVSCKHNTRGQHCELCRLGYFRNASAQLDDENVCIECYCNPLGSIHDRCNGSGFCECKTGTTGPKCDECLPGNSWHYGCQPNVCDNELLHCQNGGTCHNNVRCLCPAAYTGILCEKLRCEEAGSCGS
Consider B2, for which the EV clustering entry in the experiment on CAF EVs is listed as “only clusters exosomes”. Besides, the “virus transmission via functional synapses between neurons” value in the experiment with virus infected neurons is listed as “limited virus transmission”. In addition, the “functional synapses between neurons and fibroblasts (virus spread into CAFs)” value in experiment [4] is reported as “prevented”. Also, in the experiment with PDAC cancer cells (recombinant NetG1 treatment of KRAS-transformed pancreatic cells), the “effectiveness of EVs from NetG1 deficient CAFs (NG1KO) in rescuing starvation-induced death of PDAC cancer cells” value is “improves the effectiveness of EVs”. Also, the “T cell activation (proliferation) by CD3/CD28” value in experiment [5] is on record as “activation is prevented”.
